Measured values from the supplement of paper PMC7125110.
± gives the standard error. For some assays here: This sample holds only a part of the variants without activity.

B1: glmS ribozyme (parent)
chain: AUAAAAGCGCCAGAACUACAGAAAUGUAGUUGACGAGGAGGAGGUUUAUCGAAUUUUCGGCGGAUGCCUCCAAA

Legend:
Conditions in all cases: with glucosamine-6-phosphate
glucosamine-6-phosphate [1] = variants of: B1; experiment: kcat; higher = faster cleavage; RNA array
How it was run: (§1)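 Barcoded ribozyme variants on sequenced MiSeq chips were transcribed in situ by E. coli RNA polymerase and followed at 37 °C through a hybridised Cy3 probe. Glucosamine-6-phosphate at 40 μM to 10 mM in HEPES/KCl/Mg(OAc)2 buffer was flowed in, and tiles were imaged over ~14 h. Signals were normalised to baseline and to non-cleaving reference variants, and per-tile medians were fit to one- or two-exponential decays to give kobs. Weighted Michaelis–Menten fits across concentrations gave kcat and KM.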

glucosamine-6-phosphate [2] = variants of: B1; experiment: KM; higher = weaker cofactor use; RNA array
How it was run: as §1

glucosamine-6-phosphate [3] = variants of: B1; experiment: self-cleavage kobs at 40 uM GlcN6P; higher = faster cleavage; RNA array
How it was run: as §1

glucosamine-6-phosphate [4] = variants of: B1; experiment: self-cleavage kobs at 160 uM GlcN6P; higher = faster cleavage; RNA array
How it was run: as §1

glucosamine-6-phosphate [5] = variants of: B1; experiment: self-cleavage kobs at 640 uM GlcN6P; higher = faster cleavage; RNA array
How it was run: as §1

glucosamine-6-phosphate [6] = variants of: B1; experiment: self-cleavage kobs at 2500 uM GlcN6P; higher = faster cleavage; RNA array
How it was run: as §1

glucosamine-6-phosphate [7] = variants of: B1; experiment: self-cleavage kobs at 10000 uM GlcN6P; higher = faster cleavage; RNA array
How it was run: as §1

With A12U U55C the kcat (glucosamine-6-phosphate [1]) was 0.0176 ± 0.0056 s⁻¹, the KM (glucosamine-6-phosphate [2]) was 464 ± 200 µM and the “self-cleavage kobs at 40 uM GlcN6P” value (glucosamine-6-phosphate [3]) was 0.0016 ± 0.00016 s⁻¹. The “self-cleavage kobs at 160 uM GlcN6P” value (glucosamine-6-phosphate [4]) was 0.00304 ± 0.00062 s⁻¹, the “self-cleavage kobs at 640 uM GlcN6P” value (glucosamine-6-phosphate [5]) was 0.0204 ± 0.0053 s⁻¹ and the “self-cleavage kobs at 2500 uM GlcN6P” value (glucosamine-6-phosphate [6]) was 0.0186 ± 0.0045 s⁻¹. For the same variant, the “self-cleavage kobs at 10000 uM GlcN6P” value (glucosamine-6-phosphate [7]) was 0.0162 ± 0.0029 s⁻¹.

A39G G41A was tested, and the kcat (glucosamine-6-phosphate [1]) was 0.00311 ± 0.00078 s⁻¹, the KM (glucosamine-6-phosphate [2]) was 3870 ± 1400 µM and the “self-cleavage kobs at 40 uM GlcN6P” value (glucosamine-6-phosphate [3]) was 4.23e-05 ± 8.3e-06 s⁻¹. The “self-cleavage kobs at 160 uM GlcN6P” value (glucosamine-6-phosphate [4]) was 8.83e-05 ± 2.3e-05 s⁻¹, the “self-cleavage kobs at 640 uM GlcN6P” value (glucosamine-6-phosphate [5]) was 0.000475 ± 9.1e-05 s⁻¹ and the “self-cleavage kobs at 2500 uM GlcN6P” value (glucosamine-6-phosphate [6]) was 0.00153 ± 0.00033 s⁻¹. For the same variant, the “self-cleavage kobs at 10000 uM GlcN6P” value (glucosamine-6-phosphate [7]) was 0.00217 ± 0.0003 s⁻¹.

For C11U U45C, the kcat (glucosamine-6-phosphate [1]) was 9.44e-05 ± 1.8e-05 s⁻¹, the “self-cleavage kobs at 2500 uM GlcN6P” value (glucosamine-6-phosphate [6]) was 6.5e-05 ± 1.3e-05 s⁻¹ and the “self-cleavage kobs at 10000 uM GlcN6P” value (glucosamine-6-phosphate [7]) was 7.59e-05 ± 1e-05 s⁻¹.

Variant U49A A64G has a kcat (glucosamine-6-phosphate [1]) of 2.04e-05 ± 1.6e-06 s⁻¹ and a KM (glucosamine-6-phosphate [2]) of 2090 ± 850 µM.

In the case of C16U C34A C50G U56C, the kcat (glucosamine-6-phosphate [1]) is reported as 1.31e-05 ± 1.9e-06 s⁻¹.

G13U G32U was tested, and the kcat (glucosamine-6-phosphate [1]) was 0.00043 ± 2.8e-05 s⁻¹, the KM (glucosamine-6-phosphate [2]) was 3420 ± 370 µM and the “self-cleavage kobs at 160 uM GlcN6P” value (glucosamine-6-phosphate [4]) was 2.69e-05 ± 1.1e-05 s⁻¹. The “self-cleavage kobs at 640 uM GlcN6P” value (glucosamine-6-phosphate [5]) was 6.64e-05 ± 8.3e-06 s⁻¹, the “self-cleavage kobs at 2500 uM GlcN6P” value (glucosamine-6-phosphate [6]) was 0.000182 ± 3.1e-05 s⁻¹ and the “self-cleavage kobs at 10000 uM GlcN6P” value (glucosamine-6-phosphate [7]) was 0.000321 ± 3.4e-05 s⁻¹.

A33G G38C was tested, and the kcat (glucosamine-6-phosphate [1]) was less than 1e-05 s⁻¹, the “self-cleavage kobs at 40 uM GlcN6P” value (glucosamine-6-phosphate [3]) was less than 1e-05 s⁻¹ and the “self-cleavage kobs at 160 uM GlcN6P” value (glucosamine-6-phosphate [4]) was less than 1e-05 s⁻¹.

In the case of A6U C67U, the kcat (glucosamine-6-phosphate [1]) is reported as 8.67e-05 ± 4.7e-06 s⁻¹, the KM (glucosamine-6-phosphate [2]) is reported as 565 ± 160 µM and the “self-cleavage kobs at 640 uM GlcN6P” value (glucosamine-6-phosphate [5]) is reported as 4.42e-05 ± 8.6e-06 s⁻¹. For the same variant, the “self-cleavage kobs at 2500 uM GlcN6P” value (glucosamine-6-phosphate [6]) was 8.14e-05 ± 1.1e-05 s⁻¹ and the “self-cleavage kobs at 10000 uM GlcN6P” value (glucosamine-6-phosphate [7]) was 8.01e-05 ± 6.2e-06 s⁻¹.

For G7C A36G G37U A52U U57C G63U, the kcat (glucosamine-6-phosphate [1]) was less than 1e-05 s⁻¹ and the “self-cleavage kobs at 2500 uM GlcN6P” value (glucosamine-6-phosphate [6]) was less than 1e-05 s⁻¹.

In the case of G29U A48C, the kcat (glucosamine-6-phosphate [1]) is reported as 1.88e-05 ± 3.6e-07 s⁻¹, the KM (glucosamine-6-phosphate [2]) is reported as 138 ± 42 µM and the “self-cleavage kobs at 40 uM GlcN6P” value (glucosamine-6-phosphate [3]) is reported as less than 1e-05 s⁻¹. For the same variant, the “self-cleavage kobs at 160 uM GlcN6P” value (glucosamine-6-phosphate [4]) was less than 1e-05 s⁻¹ and the “self-cleavage kobs at 10000 uM GlcN6P” value (glucosamine-6-phosphate [7]) was 1.85e-05 ± 7.6e-06 s⁻¹.

For U30A G41C, the kcat (glucosamine-6-phosphate [1]) was 4.61e-05 ± 3.9e-06 s⁻¹, the KM (glucosamine-6-phosphate [2]) was 5270 ± 1100 µM and the “self-cleavage kobs at 40 uM GlcN6P” value (glucosamine-6-phosphate [3]) was less than 1e-05 s⁻¹.

A39G U55A was tested, and the kcat (glucosamine-6-phosphate [1]) was 0.0158 ± 0.0027 s⁻¹, the KM (glucosamine-6-phosphate [2]) was 399 ± 110 µM and the “self-cleavage kobs at 40 uM GlcN6P” value (glucosamine-6-phosphate [3]) was 0.00131 ± 0.00023 s⁻¹. For the same variant, the “self-cleavage kobs at 160 uM GlcN6P” value (glucosamine-6-phosphate [4]) was 0.00551 ± 0.0011 s⁻¹, the “self-cleavage kobs at 640 uM GlcN6P” value (glucosamine-6-phosphate [5]) was 0.0115 ± 0.0025 s⁻¹ and the “self-cleavage kobs at 2500 uM GlcN6P” value (glucosamine-6-phosphate [6]) was 0.0107 ± 0.0029 s⁻¹. The “self-cleavage kobs at 10000 uM GlcN6P” value (glucosamine-6-phosphate [7]) was 0.017 ± 0.0039 s⁻¹.

In the case of A14G A64G U65A, the kcat (glucosamine-6-phosphate [1]) is reported as 0.00407 ± 0.0014 s⁻¹, the “self-cleavage kobs at 40 uM GlcN6P” value (glucosamine-6-phosphate [3]) is reported as 0.000284 ± 0.0001 s⁻¹ and the “self-cleavage kobs at 160 uM GlcN6P” value (glucosamine-6-phosphate [4]) is reported as 0.000621 ± 0.00019 s⁻¹. For the same variant, the “self-cleavage kobs at 640 uM GlcN6P” value (glucosamine-6-phosphate [5]) was 0.00307 ± 0.0012 s⁻¹, the “self-cleavage kobs at 2500 uM GlcN6P” value (glucosamine-6-phosphate [6]) was 0.00271 ± 0.0008 s⁻¹ and the “self-cleavage kobs at 10000 uM GlcN6P” value (glucosamine-6-phosphate [7]) was 0.00718 ± 0.0031 s⁻¹.

With A42G U69G the kcat (glucosamine-6-phosphate [1]) was 0.000182 ± 2.9e-05 s⁻¹, the “self-cleavage kobs at 40 uM GlcN6P” value (glucosamine-6-phosphate [3]) was 5.35e-05 ± 2.1e-05 s⁻¹ and the “self-cleavage kobs at 640 uM GlcN6P” value (glucosamine-6-phosphate [5]) was 0.000119 ± 4.1e-05 s⁻¹. For the same variant, the “self-cleavage kobs at 10000 uM GlcN6P” value (glucosamine-6-phosphate [7]) was 0.000202 ± 4.3e-05 s⁻¹.

In the case of A36G U69A, the kcat (glucosamine-6-phosphate [1]) is reported as 1.02e-05 ± 2.2e-06 s⁻¹.

With U55C A64U the kcat (glucosamine-6-phosphate [1]) was 5.99e-05 ± 7.9e-06 s⁻¹, the “self-cleavage kobs at 2500 uM GlcN6P” value (glucosamine-6-phosphate [6]) was 4.69e-05 ± 8e-06 s⁻¹ and the “self-cleavage kobs at 10000 uM GlcN6P” value (glucosamine-6-phosphate [7]) was 5.2e-05 ± 5.7e-06 s⁻¹.

For U47G A48G, the kcat (glucosamine-6-phosphate [1]) was 8.61e-05 ± 8.6e-06 s⁻¹, the “self-cleavage kobs at 640 uM GlcN6P” value (glucosamine-6-phosphate [5]) was 4.31e-05 ± 1.6e-05 s⁻¹ and the “self-cleavage kobs at 2500 uM GlcN6P” value (glucosamine-6-phosphate [6]) was 8.59e-05 ± 1.7e-05 s⁻¹. The “self-cleavage kobs at 10000 uM GlcN6P” value (glucosamine-6-phosphate [7]) was 7.67e-05 ± 1.3e-05 s⁻¹.

With A14G A64C the kcat (glucosamine-6-phosphate [1]) was 0.000278 ± 1.8e-05 s⁻¹, the KM (glucosamine-6-phosphate [2]) was 906 ± 140 µM and the “self-cleavage kobs at 640 uM GlcN6P” value (glucosamine-6-phosphate [5]) was 0.000118 ± 1.4e-05 s⁻¹. For the same variant, the “self-cleavage kobs at 2500 uM GlcN6P” value (glucosamine-6-phosphate [6]) was 0.000217 ± 3.3e-05 s⁻¹ and the “self-cleavage kobs at 10000 uM GlcN6P” value (glucosamine-6-phosphate [7]) was 0.000247 ± 3e-05 s⁻¹.
